Reference: patent CN103588878A (JIANGSU T MAB BIOPHARMA, dated 2014)
Where “and” joins values, the source holds several entries; their conditions need not be identical. Identical values can stand only once.

How the values were obtained:
生物素化重组人白细胞介素1β (rhIL-1β) [1] = molecular target: T1, 生物素化重组人白细胞介素1β (rhIL-1β) (human, UniProt P01584 117-269, biotinylated (site not stated)); assay: BLI (Fortebio Octet QK), summary range of the two runs
T1 construct: Antigen was biotinylated and desalted before the Fortebio Octet measurement; also called 抗原rhIL-1β

生物素化重组人白细胞介素1β (rhIL-1β) [2] = molecular target: T1, 生物素化重组人白细胞介素1β (rhIL-1β); assay: BLI (Fortebio Octet QK), biotinylated rhIL-1β, antibody 40-1.25 nM, run 2
生物素化重组人白细胞介素1β (rhIL-1β) [3] = molecular target: T1, 生物素化重组人白细胞介素1β (rhIL-1β); assay: BLI (Fortebio Octet QK), biotinylated rhIL-1β, antibody 40-1.25 nM, run 1

Kd (生物素化重组人白细胞介素1β (rhIL-1β) [1]): 0.01 nM and 0.025 nM
Kd (生物素化重组人白细胞介素1β (rhIL-1β) [2]): 0.0128 nM
koff (生物素化重组人白细胞介素1β (rhIL-1β) [2]): 2.16e-06 s⁻¹
kon (生物素化重组人白细胞介素1β (rhIL-1β) [2]): 166000 M⁻¹ s⁻¹
Kd (生物素化重组人白细胞介素1β (rhIL-1β) [3]): 0.0211 nM
koff (生物素化重组人白细胞介素1β (rhIL-1β) [3]): 3.02e-06 s⁻¹
kon (生物素化重组人白细胞介素1β (rhIL-1β) [3]): 143000 M⁻¹ s⁻¹
B1: 人源化抗人白细胞介素1β(hIL-1β)单克隆抗体 (antibody, human IgG1, kappa, V domains shown)
VH: EVQLVESGGGLVQPGGSLRLSCAVSGFSLDVYTMTWVRQAPGKGLEWIGYIWSGGSASYASWAKGRFTISKDSSKNTVYLQINSLRAEDTAVYFCARVKMISNIETFDPWGPGTLVTVSS
VL: DIQMTQSPSSVSASVGDRVTIKCQASERIYSGLAWYQQKPGKRPKLLIYRASTLASGVPSRFSGSGSGTDFTLTISSLQPEDFATYYCQQGVSSSDIDNVFGGGTKVEIKR
notes: Full light and heavy chains; Expressed in CHO DG44 cells and purified; also called 人源化抗hIL-1β单克隆抗体; humanized form of rabbit clone Q26
